The binders below were run against Anti-CD28 Fab (SEQ ID NOs: 202, 203) (assay: phage binding ELISA on captured Fab;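 further: clonal phage supernatants added briefly to wells pre-incubated with CD28 antigen or with blocking buffer only, then washed, bound phage read by ELISA using HRP-coupled anti-M13 antibody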).
Chain of Anti-CD28 Fab (SEQ ID NOs: 202, 203) (VH, as listed by the source, chain 1 of 2): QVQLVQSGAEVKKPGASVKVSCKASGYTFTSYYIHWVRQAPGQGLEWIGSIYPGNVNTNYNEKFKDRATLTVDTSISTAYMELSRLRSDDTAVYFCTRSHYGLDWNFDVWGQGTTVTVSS
Chain of Anti-CD28 Fab (SEQ ID NOs: 202, 203) (VL, as listed by the source, chain 2 of 2): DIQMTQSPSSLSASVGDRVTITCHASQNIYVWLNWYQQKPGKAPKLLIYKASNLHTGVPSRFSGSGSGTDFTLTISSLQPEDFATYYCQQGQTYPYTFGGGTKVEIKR
Description: (§1) Clonal phage were harvested as crude supernatants and screened via standard ELISAs. […] Prior to the addition of clonal phage, wells were incubated with blocking buffer and CD28 antigen or blocking buffer alone. Without washing or aspirating, clonal phage supernatants were then added to the wells and incubated for a short time. Wells were then washed followed by detection of bound phage using a horse radish conjugated anti-M13 antibody.
YCAGHSAEYIQKCL [Phage-823] was tested, and the “Anti-CD28 Fab (SEQ ID NOs: 202, 203) signal” value was 0.8.
YCAGHTQEYMLKCL [Phage-824] was tested, and the “Anti-CD28 Fab (SEQ ID NOs: 202, 203) signal” value was 0.78.
In the case of YCQGHSVQYMAKCL [Phage-825], the “Anti-CD28 Fab (SEQ ID NOs: 202, 203) signal” value is reported as 0.77.
YCEGHSSEYMVKCL [Phage-826] was tested, and the “Anti-CD28 Fab (SEQ ID NOs: 202, 203) signal” value was 0.77.
With YCDGHTGVYKWKCI [Phage-827] the “Anti-CD28 Fab (SEQ ID NOs: 202, 203) signal” value was 0.76.
YCAGHIGEYMDKCL [Phage-828] was tested, and the “Anti-CD28 Fab (SEQ ID NOs: 202, 203) signal” value was 0.75.
For YCDGHAGIYVLKCL [Phage-829], the “Anti-CD28 Fab (SEQ ID NOs: 202, 203) signal” value was 0.75.
In the case of YCDGHNPVYLAKCL [Phage-830], the “Anti-CD28 Fab (SEQ ID NOs: 202, 203) signal” value is reported as 0.74.
YCEGHAQQYMLKCL [Phage-831] was tested, and the “Anti-CD28 Fab (SEQ ID NOs: 202, 203) signal” value was 0.74.
For YCEGHAQMYMLKCL [Phage-851], the “Anti-CD28 Fab (SEQ ID NOs: 202, 203) signal” value was 0.64.
With YCAGHSVQYMYKCL [Phage-832] the “Anti-CD28 Fab (SEQ ID NOs: 202, 203) signal” value was 0.74.
For YCEGHFGMYMSKCL [Phage-833], the “Anti-CD28 Fab (SEQ ID NOs: 202, 203) signal” value was 0.73.
For YCAGHMPQYMSKCL [Phage-834], the “Anti-CD28 Fab (SEQ ID NOs: 202, 203) signal” value was 0.72.
With YCQGHALQYLQKCL [Phage-835] the “Anti-CD28 Fab (SEQ ID NOs: 202, 203) signal” value was 0.71.
In the case of YCAGHLPQYVSKCL [Phage-836], the “Anti-CD28 Fab (SEQ ID NOs: 202, 203) signal” value is reported as 0.7.
For YCEGHLPWYMSKCL [Phage-837], the “Anti-CD28 Fab (SEQ ID NOs: 202, 203) signal” value was 0.69.
In the case of YCDGHHLEYIDKCL [Phage-838], the “Anti-CD28 Fab (SEQ ID NOs: 202, 203) signal” value is reported as 0.69.
In the case of YCDGHLPRFMVKCL [Phage-839], the “Anti-CD28 Fab (SEQ ID NOs: 202, 203) signal” value is reported as 0.69.
With YCQGHAPWYMVKCL [Phage-840] the “Anti-CD28 Fab (SEQ ID NOs: 202, 203) signal” value was 0.69.
With YCEGHMSEYMRKCL [Phage-841] the “Anti-CD28 Fab (SEQ ID NOs: 202, 203) signal” value was 0.69.
In the case of YCVGHLPLYMPNCL [Phage-842], the “Anti-CD28 Fab (SEQ ID NOs: 202, 203) signal” value is reported as 0.68.
For YCDGHEPQYMTKCL [Phage-843], the “Anti-CD28 Fab (SEQ ID NOs: 202, 203) signal” value was 0.68.
In the case of YCEGHLPQYLAKCY [Phage-844], the “Anti-CD28 Fab (SEQ ID NOs: 202, 203) signal” value is reported as 0.67.
In the case of YCEGHAAVYMHKCL [Phage-846], the “Anti-CD28 Fab (SEQ ID NOs: 202, 203) signal” value is reported as 0.67.
In the case of YCDGHMDAYMSKCL [Phage-847], the “Anti-CD28 Fab (SEQ ID NOs: 202, 203) signal” value is reported as 0.65.
YCMGHSAEYMGKCL [Phage-848] was tested, and the “Anti-CD28 Fab (SEQ ID NOs: 202, 203) signal” value was 0.64.
YCDGHAWWYMEKCL [Phage-849] was tested, and the “Anti-CD28 Fab (SEQ ID NOs: 202, 203) signal” value was 0.64.
YCDGHAAWYLQKCL [Phage-850] was tested, and the “Anti-CD28 Fab (SEQ ID NOs: 202, 203) signal” value was 0.64.
In the case of YCEGHSRQYMEKCM [Phage-852], the “Anti-CD28 Fab (SEQ ID NOs: 202, 203) signal” value is reported as 0.63.
With YCSGHLPMYMAKCL [Phage-853] the “Anti-CD28 Fab (SEQ ID NOs: 202, 203) signal” value was 0.62.
In the case of YCEGHLAVHMSKCL [Phage-854], the “Anti-CD28 Fab (SEQ ID NOs: 202, 203) signal” value is reported as 0.62.
In the case of YCDGHIEMYMSKCM [Phage-855], the “Anti-CD28 Fab (SEQ ID NOs: 202, 203) signal” value is reported as 0.61.
For YCEGHIGDYIAKCL [Phage-857], the “Anti-CD28 Fab (SEQ ID NOs: 202, 203) signal” value was 0.61.
YCQGHSELYMSKCL [Phage-858] was tested, and the “Anti-CD28 Fab (SEQ ID NOs: 202, 203) signal” value was 0.6.
With YCDGHTPQFRAKCL [Phage-859] the “Anti-CD28 Fab (SEQ ID NOs: 202, 203) signal” value was 0.59.
For YCEGHLQEYMGKCL [Phage-860], the “Anti-CD28 Fab (SEQ ID NOs: 202, 203) signal” value was 0.58.
In the case of YCDGHVTEYMAKCL [Phage-861], the “Anti-CD28 Fab (SEQ ID NOs: 202, 203) signal” value is reported as 0.58.
YCDGHIMPYLDKCL [Phage-862] was tested, and the “Anti-CD28 Fab (SEQ ID NOs: 202, 203) signal” value was 0.57.

These binders were tested against Anti-CD28 Fab (SEQ ID NOs: 202, 203) (assay: phage binding ELISA on captured Fab, competitor CD28 antigen;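 further: clonal phage supernatant binding in wells preincubated with CD28 antigen in blocking buffer, detected by HRP-conjugated anti-M13 antibody ELISA, compared with blocking buffer alone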).
Description: as §1
YCAGHSAEYIQKCL [Phage-823] was tested, and the “Anti-CD28 Fab signal in the presence of CD28” value (“Anti-CD28 Fab signal” below) was 0.08.
YCAGHTQEYMLKCL [Phage-824] was tested, and the “Anti-CD28 Fab signal” value was 0.06.
For YCQGHSVQYMAKCL [Phage-825], the “Anti-CD28 Fab signal” value was 0.06.
With YCEGHSSEYMVKCL [Phage-826] the “Anti-CD28 Fab signal” value was 0.06.
With YCDGHTGVYKWKCI [Phage-827] the “Anti-CD28 Fab signal” value was 0.06.
In the case of YCAGHIGEYMDKCL [Phage-828], the “Anti-CD28 Fab signal” value is reported as 0.58.
With YCDGHAGIYVLKCL [Phage-829] the “Anti-CD28 Fab signal” value was 0.08.
YCDGHNPVYLAKCL [Phage-830] was tested, and the “Anti-CD28 Fab signal” value was 0.08.
For YCEGHAQQYMLKCL [Phage-831], the “Anti-CD28 Fab signal” value was 0.05.
YCEGHAQMYMLKCL [Phage-851] was tested, and the “Anti-CD28 Fab signal” value was 0.06.
With YCAGHSVQYMYKCL [Phage-832] the “Anti-CD28 Fab signal” value was 0.06.
For YCEGHFGMYMSKCL [Phage-833], the “Anti-CD28 Fab signal” value was 0.07.
With YCAGHMPQYMSKCL [Phage-834] the “Anti-CD28 Fab signal” value was 0.05.
With YCQGHALQYLQKCL [Phage-835] the “Anti-CD28 Fab signal” value was 0.08.
In the case of YCAGHLPQYVSKCL [Phage-836], the “Anti-CD28 Fab signal” value is reported as 0.06.
With YCEGHLPWYMSKCL [Phage-837] the “Anti-CD28 Fab signal” value was 0.09.
In the case of YCDGHHLEYIDKCL [Phage-838], the “Anti-CD28 Fab signal” value is reported as 0.06.
For YCDGHLPRFMVKCL [Phage-839], the “Anti-CD28 Fab signal” value was 0.07.
In the case of YCQGHAPWYMVKCL [Phage-840], the “Anti-CD28 Fab signal” value is reported as 0.08.
For YCEGHMSEYMRKCL [Phage-841], the “Anti-CD28 Fab signal” value was 0.1.
YCVGHLPLYMPNCL [Phage-842] was tested, and the “Anti-CD28 Fab signal” value was 0.11.
YCDGHEPQYMTKCL [Phage-843] was tested, and the “Anti-CD28 Fab signal” value was 0.1.
With YCEGHLPQYLAKCY [Phage-844] the “Anti-CD28 Fab signal” value was 0.08.
With YCEGHAAVYMHKCL [Phage-846] the “Anti-CD28 Fab signal” value was 0.09.
In the case of YCDGHMDAYMSKCL [Phage-847], the “Anti-CD28 Fab signal” value is reported as 0.06.
YCMGHSAEYMGKCL [Phage-848] was tested, and the “Anti-CD28 Fab signal” value was 0.06.
In the case of YCDGHAWWYMEKCL [Phage-849], the “Anti-CD28 Fab signal” value is reported as 0.06.
In the case of YCDGHAAWYLQKCL [Phage-850], the “Anti-CD28 Fab signal” value is reported as 0.07.
YCEGHSRQYMEKCM [Phage-852] was tested, and the “Anti-CD28 Fab signal” value was 0.33.
YCSGHLPMYMAKCL [Phage-853] was tested, and the “Anti-CD28 Fab signal” value was 0.13.
With YCEGHLAVHMSKCL [Phage-854] the “Anti-CD28 Fab signal” value was 0.06.
YCDGHIEMYMSKCM [Phage-855] was tested, and the “Anti-CD28 Fab signal” value was 0.06.
YCEGHIGDYIAKCL [Phage-857] was tested, and the “Anti-CD28 Fab signal” value was 0.36.
With YCQGHSELYMSKCL [Phage-858] the “Anti-CD28 Fab signal” value was 0.08.
In the case of YCDGHTPQFRAKCL [Phage-859], the “Anti-CD28 Fab signal” value is reported as 0.07.
With YCEGHLQEYMGKCL [Phage-860] the “Anti-CD28 Fab signal” value was 0.25.
With YCDGHVTEYMAKCL [Phage-861] the “Anti-CD28 Fab signal” value was 0.07.
For YCDGHIMPYLDKCL [Phage-862], the “Anti-CD28 Fab signal” value was 0.05.

Source: patent publication US20260274955A1 (JANUX THERAPEUTICS, published 2026)
